According to the supplement of paper PMC12042874:
± gives the uncertainty stated by the source.

Assay: amyloid nucleation score (Sup35N fusion, yeast selection) (log enrichment); library NNK3; higher = more nucleation; inactive = no reads after selection
In short: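 For the nucleation score, DiMSum gave the log enrichment of output over input reads, centred on the mode score of non-aggregating sequences. Psi-negative yeast expressing Sup35N fused to peptides of 20 random codons were induced with 100 μM copper sulfate for 24 hours and grown 7 days at 30°C on medium lacking adenine and uracil. Input and output plasmid inserts were Illumina-sequenced, and sequences with under 100 input reads were excluded.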
Work on YWDDWLNSTGRDPSHKPRRT yielded an amyloid nucleation score of 1.95 ± 0.07.
In the case of DYALALVFAYCYEDNRMCCP, the amyloid nucleation score is reported as “inactive”.
With KYSMTK the amyloid nucleation score was “inactive”.
In the case of FISPVL, the amyloid nucleation score is reported as “inactive”.
With VFLLCSLILWRAQLQLVCSL the amyloid nucleation score was “inactive”.
With IAHISLQNIVDVMGPNRSMY the amyloid nucleation score was 1.44 ± 0.14.
For RISSCSYHRVRVHVDTWAHV, the amyloid nucleation score was “inactive”.
For FGCCKRCRHNRVSKEFSWSC, the amyloid nucleation score was “inactive”.
With NRSCRDFRYY the amyloid nucleation score was “inactive”.
NFYYSSAFLSVLFPFSACFP gave an amyloid nucleation score of 2.22 ± 0.084.
With FEYLLGKLCRLCSNAGRSLS the amyloid nucleation score was “inactive”.
In the case of ISCGYSYGTRRFS, the amyloid nucleation score is reported as “inactive”.
VFFRYWV gave an amyloid nucleation score of 1.62 ± 0.073.
TVNLDQMYYMVFCVFRSMHD showed an amyloid nucleation score of 0.498 ± 0.43.
For ERDFLF, the amyloid nucleation score was “inactive”.
With EKSCCCSVKI the amyloid nucleation score was “inactive”.
In the case of NRRGSSVVRI, the amyloid nucleation score is reported as “inactive”.
For DHHLEEYRL, the amyloid nucleation score was “inactive”.
In the case of FRLILM, the amyloid nucleation score is reported as “inactive”.
With MTCTTCACDDICSNKLVLFH the amyloid nucleation score was “inactive”.
In the case of RLILDNHDTSFCLIHGSRMI, the amyloid nucleation score is reported as “inactive”.
In the case of NLSVIMLVVCMLTINNIYMS, the amyloid nucleation score is reported as 1.29 ± 0.11.
In the case of TWTDCERRLDIVKEMLNYIQ, the amyloid nucleation score is reported as “inactive”.
In the case of SSWPN, the amyloid nucleation score is reported as “inactive”.
For TFEEFESTARLGFHERGDFY, the amyloid nucleation score was “inactive”.
With VKYVNEPVSHSIDWIPSPFP the amyloid nucleation score was 0.559 ± 0.24.
In the case of IFIAKLENTVSRLFTFCFIM, the amyloid nucleation score is reported as “inactive”.
In the case of VISVTRSYSHTYK, the amyloid nucleation score is reported as “inactive”.
Substance YSGFSYVRGLYGSGYVMAQP has an amyloid nucleation score of -0.192 ± 0.52.
With VNLFHSYCMAISRIITISSL the amyloid nucleation score was “inactive”.
In the case of AWFVEKLLCDLHSPSAVGAG, the amyloid nucleation score is reported as -0.565 ± 1.5.
Work on MGRAWTIQAGNVMCRVVGKH yielded an amyloid nucleation score of -0.283 ± 0.58.
In the case of HLNTSLETLKVLMVTQPTGN, the amyloid nucleation score is reported as “inactive”.
In the case of RWSILDGHHNVVLSVPSKS, the amyloid nucleation score is reported as “inactive”.
For SISYINRKHTRNDTPRLRGV, the amyloid nucleation score was “inactive”.
For GVGFQGYVTRGKNRLRDRAQ, the amyloid nucleation score was “inactive”.
For YRAYVYEDTFWWAWYQFILL, the amyloid nucleation score was “inactive”.
In the case of RNNVMYVGYEGI, the amyloid nucleation score is reported as “inactive”.
For IWISYRMVSFEASKQSVVL, the amyloid nucleation score was “inactive”.
For VLQLDL, the amyloid nucleation score was “inactive”.
In the case of FWYFYSKEFTRQDLVDLNVM, the amyloid nucleation score is reported as “inactive”.
In the case of VFYLCNFWGCWTCSIAVIVS, the amyloid nucleation score is reported as 0.576 ± 0.17.
MISNHCYSLTMIAE showed an amyloid nucleation score of -0.432 ± 1.
With PGLIVF the amyloid nucleation score was “inactive”.
SCVPWICWNCQVPGL gave an amyloid nucleation score of 0.881 ± 0.18.
With SSYSVVFEQ the amyloid nucleation score was “inactive”.
With GELPLRVKVKSFHTDTSLRT the amyloid nucleation score was “inactive”.
For FICFFGYS, the amyloid nucleation score was “inactive”.
With FDLEMSSGFPTIELWMR the amyloid nucleation score was “inactive”.
For KIQSMISTITMVFTKLLSHL, the amyloid nucleation score was -0.546 ± 0.7.
In the case of NKNHYFRVF, the amyloid nucleation score is reported as “inactive”.
With VFGPRRPMVNCSN the amyloid nucleation score was “inactive”.
For QVRNSDRFSCIGSANIRKSL, the amyloid nucleation score was “inactive”.
For YQIMDPNRLAFVTDMLSRDL, the amyloid nucleation score was “inactive”.
In the case of YISLVSWHNGWYSKLICGVV, the amyloid nucleation score is reported as “inactive”.
With ITGMVPWSSLESSRPGSLKR the amyloid nucleation score was “inactive”.
For RSFRSKPKYLLTSDTCWSLT, the amyloid nucleation score was “inactive”.
For CLLSYSQPLGKGFGSTRDRC, the amyloid nucleation score was “inactive”.
With RGLVLVFVREAYRREY the amyloid nucleation score was 0.598 ± 0.29.
In the case of TCTCGVFSD, the amyloid nucleation score is reported as “inactive”.
With IAFLAMHLFVASWFPR the amyloid nucleation score was “inactive”.
With LYVATS the amyloid nucleation score was “inactive”.
In the case of SFDARCGWKLNMFYSCSFIQ, the amyloid nucleation score is reported as -0.009 ± 0.81.
For LWCCEYRNRAATMRVPDPEL, the amyloid nucleation score was “inactive”.
For SIMYFVTNGCGNGC, the amyloid nucleation score was 1.79 ± 0.086.
In the case of MLREMY, the amyloid nucleation score is reported as “inactive”.
In the case of VFGPLYSSYDIRQ, the amyloid nucleation score is reported as “inactive”.
With CQTGRYRESALSVLARKLNA the amyloid nucleation score was “inactive”.
KFVQSIIGHWNLGHMPCGSM showed an amyloid nucleation score of 0.587 ± 0.17.
CHHYHMWLRFGSVEWIRGMD showed an amyloid nucleation score of -0.052 ± 0.38.
For FPILS, the amyloid nucleation score was “inactive”.
For ALWWKRGVNMRNPSETRLAM, the amyloid nucleation score was “inactive”.
For MFCDLINESSHCCEATLECN, the amyloid nucleation score was “inactive”.
For GIVTLSA, the amyloid nucleation score was “inactive”.
In the case of GIVRSVCYVNGCVLDHEVGI, the amyloid nucleation score is reported as “inactive”.
With FWCIGEIRCTYMWRSQCFCV the amyloid nucleation score was “inactive”.
Substance ILLSVSWGAR has an amyloid nucleation score of 1.49 ± 0.13.
For SFRRLDGNRNLFSSCRVNGL, the amyloid nucleation score was “inactive”.
With SLSSWLWVVLIVHCMSGRNS the amyloid nucleation score was “inactive”.
With HFFMLGLYTSACHLESNYDC the amyloid nucleation score was 0.758 ± 0.1.
With YDNANGRTRIIMISGRVSNY the amyloid nucleation score was “inactive”.
With KGLSIIWMGQFGGAEFRITG the amyloid nucleation score was “inactive”.
For RSKRSLCRGLPDMYAWKWSR, the amyloid nucleation score was “inactive”.
TALWYSYFSTKNDMSLQFAP gave an amyloid nucleation score of -0.673 ± 1.1.
With VEDGAGGP the amyloid nucleation score was “inactive”.
With CDVCNM the amyloid nucleation score was “inactive”.
In the case of WIPTPVLCGRPNFYFY, the amyloid nucleation score is reported as “inactive”.
For RLRSNDSDLNRIAAIKVRGI, the amyloid nucleation score was “inactive”.
With FLFTFKIHPLGGMFGVLILS the amyloid nucleation score was “inactive”.
For SIPLLTQMWTVNGNRRWQTA, the amyloid nucleation score was “inactive”.
In the case of RNIYM, the amyloid nucleation score is reported as “inactive”.
With AWELEKTTYRRGRAIVVHTP the amyloid nucleation score was “inactive”.
In the case of EPITASYMRILNCACVAYCG, the amyloid nucleation score is reported as “inactive”.
With TTGLFE the amyloid nucleation score was “inactive”.
For MRPITGVMVLNVSNRQITLF, the amyloid nucleation score was 1.72 ± 0.088.
With MCILQGLFDVNSLTGLWVAS the amyloid nucleation score was “inactive”.
With SRRYFYIDIRYRNIKP the amyloid nucleation score was “inactive”.
For VGRSEIYPACPLHSFKMDKF, the amyloid nucleation score was “inactive”.
For NSFDGTYVYTYLPSELSTFP, the amyloid nucleation score was “inactive”.
LLMFTFHYSPFS gave an amyloid nucleation score of 0.483 ± 0.37.
With ESFVGEGDRSWSGHGNFITV the amyloid nucleation score was “inactive”.
For NYLYVELIWLHFSSMALRDD, the amyloid nucleation score was “inactive”.
QSTPYYLGFTD showed an amyloid nucleation score of 0.988 ± 0.11.
In the case of GSMTFNYTLEGLNYHNDTKE, the amyloid nucleation score is reported as “inactive”.
For GALAKFLLISKTMRVDMRMV, the amyloid nucleation score was “inactive”.
With SRPLEMVLLLSWWIMSRKIP the amyloid nucleation score was “inactive”.
In the case of IISHKQRSRVIVCSGS, the amyloid nucleation score is reported as “inactive”.
In the case of ANVARFMYSFVKQALSLWVR, the amyloid nucleation score is reported as “inactive”.
In the case of SLGTIMFVCGGPRGHLCSVR, the amyloid nucleation score is reported as -0.414 ± 1.4.
With SLCRRWVNLDTGSPYGTL the amyloid nucleation score was “inactive”.
In the case of SNANKCGRMFEMKYRHNLCL, the amyloid nucleation score is reported as “inactive”.
In the case of ERRIKDLTECSNR, the amyloid nucleation score is reported as “inactive”.
With DVGMGRHGKAMK the amyloid nucleation score was “inactive”.
For WVWSKL, the amyloid nucleation score was “inactive”.
For SGKGKCVYNVLRQGFFSKMS, the amyloid nucleation score was “inactive”.
For HCKRYNVERKNFCDLHNQRY, the amyloid nucleation score was “inactive”.
FSVSASEKHFFSCVMLYCVS showed an amyloid nucleation score of 0.935 ± 0.1.
With CGVSLDRWSNMQ the amyloid nucleation score was “inactive”.
For PDLIHFTCLSSWFSSVVALV, the amyloid nucleation score was “inactive”.
